System: HAdV-25p
Assay: Virus-defensin binding assay, HAdV-25p
Set-up: species or system human adenovirus
Text: Figure 2 HD5 binding to HAdV. A) HD5 binding to a representative defensin-sensitive serotype (HAdV-5) was quantified by an equilibrium-binding assay. Data are the mean of the number of HD5 molecules bound per virion at the indicated HD5 concentrations from at least three independent experiments ± SD. Binding curves were fitted using Prism software. B) Binding of HD5 to additional defensin-sensitive (HAdV-7p) and resistant (HAdV-19c, -25p, -51p) serotypes expressed as a percent of HD5 bound to HAdV-5. Data are the mean of two or three independent experiments ± SD.
We assessed HD5 binding to additional serotypes after incubation with 20 µM HD5 (Figure 2B). The sensitive serotype HAdV-7p bound 69.3±15.9% of the amount of HD5 bound to HAdV-5 in parallel samples; whereas, the corresponding values for the resistant serotypes HAdV-19c, -25p, and -51p were 32.5±7.5%, 3.3±5.8%, and 24.6±12.0%, respectively.
To measure HD5 binding to HAdV-5 and -51, HD5 was serially diluted in PBS and mixed with 5 µg purified virus. […] The other half of each sample was used to make a standard curve for quantification. […] Virus bands were quantified using ImageQuant NT software (GE Healthcare). […] The amount of HD5 in the centrifuged samples was then quantified against the standard curve using Prism software. […]

B1: HD5: human alpha-defensin; synthetic, obtained from Peptides International; three disulfide bonds (PDB 1ZMP) (peptide, UniProt Q01523 20-94, looked up)
Defensin alpha 5: ESLQERADEATTQKQSGEDNQDLAISFAGNGLSALRTSGSQARATCYCRTGRCATRESLSGVCEISGRLYRLCCR
modifications: Defensin-5
With B1 the “HD5 bound, percent of HD5 bound to HAdV-5” value (20 µM HD5, mean of two or three independent experiments ± SD) was 3.3±5.8% and the “level of HD5 binding (in words)” value (HAdV-25p) was “only a low level of binding”.

Source: paper PMC2891831, “Insight into the Mechanisms of Adenovirus Capsid Disassembly from Studies of Defensin Neutralization” (PLoS Pathogens, 2010)
